In test [1] the target is T1, human CD137 expressed on CHO cells (human, UniProt Q07011 18-255).
T1 construct: also called CHO huCD137; CHO human CD137 cells
Put plainly: FMAT/Mirrorball on CHO huCD137 cells. The gist of the method: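 His-tagged VH molecules bound to CHO cells expressing human PD-1 or human CD137, with CHO parent cells as control, in PBS pH 7.4, 0.1% BSA, 0.05% sodium azide. Read by FMAT on Mirrorball (ex 488/640 nm); binding taken as FL2 median fluorescence intensity of FL5-gated events.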

In test [2] the target is T2, human HVEM (R&D Systems cat no. HVM-H5258) (human, UniProt Q92956 39-202, limits assumed).
T2 sequence (looked up): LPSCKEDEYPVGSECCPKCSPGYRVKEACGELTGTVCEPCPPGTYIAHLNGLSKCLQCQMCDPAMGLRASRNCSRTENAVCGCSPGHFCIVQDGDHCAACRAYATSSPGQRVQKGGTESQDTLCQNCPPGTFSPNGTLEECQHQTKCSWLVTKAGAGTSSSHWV
Put plainly: ELISA, plate-coated human HVEM; legend: No binding (-). The procedure: (§1) Specificity of binding for CD137 over the tumour necrosis factor receptor family members OX40, GITR (Glucocorticoid-induced TNFR-related), CD40 and HVEM was determined using an ELISA assay. Nunc Maxisorp plates were coated with 1 ug/ml human CD137-Fc recombinant protein (Acro Biosystems 41B-H5258), human GITR-Fc (R&D Systems cat no. 689-GR) human OX40-Fc (R&D Systems cat no. 3388-OX), human CD40 (R&D Systems cat no. CDO-H5253), human HVEM (R&D Systems cat no. HVM-H5258) in PBS overnight at 4° C. then washed twice with PBS. Non-specific protein interactions were blocked by incubation with 1% (w/v) skimmed milk powder (Marvel®) in PBS/0.1% Tween-20 for 1 hour at room temperature. Plates were washed twice with PBS then VH or antibody control (1 ug/ml) added for 1 hour at room temperature. Following three washes with PBS/0.1% Tween-20 a 1:1000 dilution of anti His-HRP (VH detection) or anti mouse-HRP (positive control mouse monoclonal antibody detection) was added in 1% Marvel/PBS/0.1% Tween-20. The detection antibodies were allowed to bind for 1 hour at room temperature then the plates were washed twice in PBS/0.1% Tween-20 and once in PBS. The ELISA was developed using TMB substrate and the reaction was stopped by the addition of 50 ul 0.5M H₂SO₄ solution. The absorbance at 450 nm was measured using the BMG Pherastar.

The target of test [3] is T3, Rhesus CD137-Fc tagged protein (rhesus, UniProt H9Z8K9 24-186).
T3 construct: extracellular domain; The Octet paragraph gives no catalogue number; also called rhCD137-Fc
Briefly: BLI (Octet RED384), CD137-Fc on Protein G sensor, 1:1 model. In general terms: Biolayer interferometry detects binding as a change in optical thickness at a sensor tip.

In test [4] the target is T4, human OX40-Fc (R&D Systems cat no. 3388-OX) (human, UniProt P43489 29-216, limits assumed).
T4 sequence (looked up): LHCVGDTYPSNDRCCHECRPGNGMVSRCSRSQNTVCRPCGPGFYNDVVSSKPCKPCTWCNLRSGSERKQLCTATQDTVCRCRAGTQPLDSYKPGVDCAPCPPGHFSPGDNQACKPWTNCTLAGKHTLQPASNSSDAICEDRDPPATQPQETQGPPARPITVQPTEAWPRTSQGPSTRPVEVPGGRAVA
Put plainly: ELISA, plate-coated human OX40-Fc; legend: No binding (-). The procedure: as §1
A general note: In an ELISA, binding on a coated surface is turned into a signal by an enzyme label.

For test [5], the target named is T5, human GITR-Fc (R&D Systems cat no. 689-GR) (human, UniProt Q9Y5U5 26-161).
T5 construct: also called Glucocorticoid-induced TNFR-related
T5 sequence (looked up): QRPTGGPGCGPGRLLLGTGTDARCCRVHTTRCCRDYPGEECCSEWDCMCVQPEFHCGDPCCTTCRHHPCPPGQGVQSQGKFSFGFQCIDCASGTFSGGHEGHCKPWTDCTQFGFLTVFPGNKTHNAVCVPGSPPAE
Briefly: ELISA, plate-coated human GITR-Fc; legend: No binding (-). The procedure:
as §1

The target of test [6] is human CD40 (R&D Systems cat no. CDO-H5253) (human, UniProt P25942 21-193, limits assumed). Put plainly: ELISA, plate-coated human CD40; legend: No binding (-). As for the experimental part: as §1
Test [7] has as its target T6, human CD40 (R&D Systems cat no. CDO-H5253) (human, UniProt P25942 21-193, limits assumed).
T6 construct: Bought protein
Briefly: ELISA, plate coated with 1 ug/ml recombinant protein, anti His-HRP detection. As for the experimental part: as §1

Test [8] addresses T7, human GITR-Fc (R&D Systems cat no. 689-GR) (human, UniProt Q9Y5U5 26-161).
T7 construct: Bought protein; also called Glucocorticoid-induced TNFR-related
T7 sequence (looked up): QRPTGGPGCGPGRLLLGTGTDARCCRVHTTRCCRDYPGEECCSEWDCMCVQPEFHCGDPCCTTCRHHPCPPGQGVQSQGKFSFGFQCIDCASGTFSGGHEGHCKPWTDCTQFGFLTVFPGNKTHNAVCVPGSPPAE
The description is as above. As for the experimental part:
as §1

The target in test [9] is T8, human HVEM (R&D Systems cat no. HVM-H5258) (human, UniProt Q92956 39-202, limits assumed).
T8 construct: Bought protein
T8 sequence (looked up): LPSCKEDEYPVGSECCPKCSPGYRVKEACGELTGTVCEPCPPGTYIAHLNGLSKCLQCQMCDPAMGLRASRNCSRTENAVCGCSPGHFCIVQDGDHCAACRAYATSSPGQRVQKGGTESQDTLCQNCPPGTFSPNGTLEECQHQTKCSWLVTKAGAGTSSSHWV
The description is as above. The procedure: as §1

In test [10] the target is T9, human OX40-Fc (R&D Systems cat no. 3388-OX) (human, UniProt P43489 29-216).
T9 construct: Bought protein
T9 sequence (looked up): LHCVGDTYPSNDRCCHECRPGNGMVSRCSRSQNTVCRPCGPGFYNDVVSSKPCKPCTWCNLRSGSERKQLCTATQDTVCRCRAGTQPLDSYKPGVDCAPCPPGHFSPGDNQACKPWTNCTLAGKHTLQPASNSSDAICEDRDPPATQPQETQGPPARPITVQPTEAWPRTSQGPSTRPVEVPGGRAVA
The description is as above. The procedure:
as §1

B1: 003BB172-E01-14 (VHH)
VHH: EVQLVESGGGVVQPGRSLRLSCAASGFTFSNYGMHWVRQAPGKGLEWVAVISNDGNTKTYADSVKGRFTISRDNSKNTLYLQMNSLRAEDTAVYYCAQDETTTVTASYYFDYWGQGTLVTVSS
notes: Human VH single domain antibody, monovalent
For orientation: EC50 means the midpoint of the concentration-response curve. The Kd is the equilibrium constant for the complex coming apart. Higher therefore signals lower affinity. The term koff denotes a measure of how fast the partners let go of each other. In general, kon refers to the second-order rate constant of association. Read a high kon as faster complex formation. In the case of B1, the response in test [1] was half-maximal at 1.29 nM (EC50). Further, the binding result in test [2], in test [4], in test [5] and in [6] was “no binding (tested: 1 ug/ml)” each time. In test [3], this molecule came in with a Kd of 25.9 nM. In test [3], the koff turned out to be 0.00159 s⁻¹. Further, the on-rate (kon) in test [3] came out at 61300 M⁻¹ s⁻¹.

B2: 003BB172-E01 (VHH)
VH: EVQLVESGGGLVQPGGSLRLSCAASGFTFSNYGMHWVRQAPGKRLEWVAVISNDGNTKTYADSVKGRFTISRDNSKNMLYLQMTSLRTEDTAVYYCAQDETTTVTASYYFDYWGQGTLVTVSS
notes: Human VH single domain antibody (Humabody), monovalent, His-tagged in the assays; also called 003BB1172-E01; not shown: C-terminal 6xHIS tag
B2: the binding result in [7], in test [8], in test [9] and in test [10] was “no binding (tested: 1 ug/ml)” each time.

B3: 003BB172-E01-14 (VHH)
VH: EVQLVESGGGVVQPGRSLRLSCAASGFTFSNYGMHWVRQAPGKGLEWVAVISNDGNTKTYADSVKGRFTISRDNSKNTLYLQMNSLRAEDTAVYYCAQDETTTVTASYYFDYWGQGTLVTVSS
notes: Human VH single domain antibody, His-tagged in the assays; not shown: C-terminal 6xHIS tag
Consider B3, for which the binding result in test [7], in [8], in [9] and in test [10] was “no binding (tested: 1 ug/ml)” each time.

The record behind these values is patent US20220220215A1 (CRESCENDO BIOLOGICS, published 2022).
